Data as given in the supplement of paper PMC9170038.

System: MS2 coat protein
Experiment: apparent KD of MS2 coat protein; designed switch direction (-1 OFF switch, 1 ON switch): -1; higher = weaker reporter binding
In short: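 Transcription of designed RNA switches on Illumina chips was done by stalled E. coli RNA polymerase. SNAP-549-labelled MS2 coat protein was then titrated in doubling steps from 0.7 or 1.5 nM to 3 µM, with steps of 0.8–1.5 h at the lowest and 10–20 min at the highest concentration. The per-design median over clusters of curve-fitted normalised fluorescence is reported as apparent KD.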

[1] = Eterna round: R95, input ligand: microRNA oligo, concentration not stated
[2] = input ligand: microRNA oligo, concentration not stated
[3] = Eterna round: R95, input ligand: FMN 200 uM
[4] = Eterna round: R95, input ligand: none

Row | Sequence | apparent KD of MS2 coat protein [1] [nM] | apparent KD of MS2 coat protein (input ligand: FMN 200 uM) [nM] | apparent KD of MS2 coat protein (input ligand: none) [nM] | apparent KD of MS2 coat protein [2] [nM] | apparent KD of MS2 coat protein [3] [nM] | apparent KD of MS2 coat protein [4] [nM]
1 | UUAAUGUGAGGAUAUGGUAAAGAUAAGAUGAUGAAAGAACUCCAGAAGGCACAUGAGGAUCACCCAUGUAGAUG [JL-ex4-2.14 Jieux mod] (puzzle: Exclusion 4) | 35.6 | – | – | – | – | –
2 | UUUGGGUCAGGAUAUUGUUAGUUUAGUUGUUUGUAUUAGUUCGAGAAGGGACAUGAGGAUCACCCAUGUGGUUU [Ex4 #78] (Eterna round: R97, puzzle: Exclusion 4) | – | 81.4 | 85.3 | – | – | –
3 | GUCGAUGUCAAAGGAUAUCAGCACGAUUAGUGCUGAGAAGGUUGAACAUGAGGAUCACCCAUGUAGAUCAUUAACGACUUAAUU [ENG1/10-A2] (Eterna round: R96, puzzle: Exclusion NG 1) | – | 28.4 | 18 | 14.1 | – | –
4 | UACUUGUUAGGAUAUCUUACAUUUGCAUCAUAGCAACUAUUGGAGAAGGGACAUGAGGAUCACCCAUGUUUGGU [tap-tap-tappy13] (Eterna round: R97, puzzle: Exclusion 4) | – | 48.4 | 41.9 | – | – | –
5 | UGCAGACGAGGAUAUAGAUUUAAGUACAUGAGGAUCACCCAUGUACAUAUGUAUUUAGAUUUAGAAGGCGUCUGCA [E5/16-A2] (Eterna round: R97, puzzle: Exclusion 5) | – | 28.2 | 27.7 | – | – | –
6 | GUGUGCUGAGGAUAUACAGAGGAAGAUAAUACAAUAUAAGUACAUGAGGAUCACCCAUGUAGAAGGCAGAGUGU [Excluse me!! 11 - Jieux - Exclusion 2] (puzzle: Exclusion 2) | 23.4 | – | – | – | – | –
7 | UGUUGUCACGCAGGAUAUGUAUGAGGAUCACCCAUUAAUAAAUUUUAACCACGAGGAUCACCCGUGUAGAAGGGCGGGACAACA [pwkr exNG2 2xF5 1xFMN.14] (Eterna round: R96, puzzle: Exclusion NG 2) | – | 30.6 | 29.9 | 20.1 | – | –
8 | CCCAGAUAAGGAUAUUGAAGGUUCGACAUGAGGAUCACCCAUGUUAUGUUGGAAAAGGGACAAGAAGGUAUGAAAA [salish99_ex5_r4_216] (Eterna round: R97, puzzle: Exclusion 5) | – | 31.2 | 33.1 | – | – | –
9 | ACUUGUGCCCUAGGAUAUCGCCCAGCCAAUGGAUGAGAAGGAGGCGGGUGAAACAUGAGGAUCACCCAUGUAAACGCACAGGCG [Esa] (Eterna round: R96, puzzle: Exclusion NG 1) | – | 114 | 26.9 | 25.5 | – | –
10 | UACAUGAGGAUCACCCAUGUUUUGUCGUGUAUGGUAUUUAUCUAGGAUAUCAAUUGAUUUAUGUAUGAGAAGGAGAAUAUUAAU [JMF's solution 63] (Eterna round: R96, puzzle: Exclusion NG 3) | – | 41.1 | 34.8 | 34.9 | – | –
11 | GAAGAGACAGGAUAUACAUGAGGAUCACCCAUGUGAGUAAGGUAGAGGCGGAGUAGAUGUAGAAGGGUCAAAGA [JR_Exclu3_Sub015] (puzzle: Exclusion 3) | 40.5 | – | – | – | 80.5 | 42.8
12 | UGUUGUCGCGCAGGAUAUGCAUGAGGAUCACCCAUGCAACCACAUUUAACAUGAGGAUCACCCAUGUAGAAGGGCGGGACAACU [pwkr exNG2 2xF5 1xFMN.3] (Eterna round: R96, puzzle: Exclusion NG 2) | – | 89 | 31.4 | 25 | – | –
13 | GCAUGCUAUGUCAGGAUAUACCUCUGGAUACAUAGGUAGAAGGGACAUGAGGAUCACCCAUGUCCUAAACAUGC [Fiskers BMX 4 - 26] (puzzle: Brourd's mod of Exclusion 4) | 11.4 | – | – | – | – | –
14 | GACUGGGCAGGAUAUACAUGAGGAUCACCCAUGUGUCUGCGUCAGGCACGUGUAGACGGUAGAAGGGCCUACAC [ChP 13.04.2015 #16] (puzzle: Exclusion 3) | 11.9 | – | – | – | – | –
15 | UUAAUUAAUUUAAUAUAAGAUCACAUGAGGAUCACCCAUGUAUAGGAUAUCAGCUCGAUUAGAGCUGAGAAGGAUACAUAAUAU [ExNG3/2-B1] (Eterna round: R96, puzzle: Exclusion NG 3) | – | 135 | 216 | 188 | – | –
16 | UGAUCUAGCGGAGGAUAUACAUGAGGAUCACCCAUGUAGACUCCAUGACCGUAGUCGUGGAGCGUGUAGAAGGCCGCUAGAUCU [JL ENG2 3.72] (Eterna round: R96, puzzle: Exclusion NG 2) | – | 19.2 | 12.2 | 10.3 | – | –
17 | ACUAAUAGAGGAUAUACAGUUUAUUACAUGAGGAUCACCCAUGUUCUUCAAUGUAUAUAAGUAGAAGGCUAUGGAA [EX-5 Malc#4] (puzzle: Exclusion 5) | 56.9 | – | – | – | – | –
18 | AAAUACAAGCAAAGAUCUUACAUGAGGAUCACCCAUGUGCUCGUCUUGUAAAGUACUAUCACGAAAGUGAUAGUACA [Sensor 3, v1 - 30] (puzzle: Sensor v3, turn-off variant 1) | 98.8 | – | – | – | 23.1 | 20.4

Row | Sequence | apparent KD of MS2 coat protein [1] [nM] | apparent KD of MS2 coat protein (input ligand: FMN 200 uM) [nM] | apparent KD of MS2 coat protein (input ligand: none) [nM] | apparent KD of MS2 coat protein [2] [nM] | apparent KD of MS2 coat protein [3] [nM] | apparent KD of MS2 coat protein [4] [nM]
19 | UGAAGUAGAGGAUAUACGUGGAAAUAGAUUCAUGUAUAUCUACAUGAGGAUCACCCAUGUAGAAGGCUAUAGAU [JR_Ex2_Sub073] (Eterna round: R97, puzzle: Exclusion 2) | – | 22.8 | 22.4 | – | – | –
20 | GACUUGUUAGGAUAUCUUACAUUUGCAUUAUAGCAACUAUUGGAGAAGGGACAUGAGGAUCACCCAUGUUUGGG [tap-tap-tappy17] (Eterna round: R97, puzzle: Exclusion 4) | – | 504 | 479 | – | – | –
21 | AAGUACCGUCACGAUAGUGAUGGUACAACAUGUAGUGAAACAUGAGGAUCACCCAUGUCCUCAAUUGCUCGUCUUAU [Sensor 3 - 83] (puzzle: Sensor v3, turn-off variant 2) | 460 | – | – | – | 1400 | 1260
22 | CACGAACAUGAGGAUCACCCAUGUAAGGAUAUGGCCAACGACUUAAACUAAAGGUUGGCCAGAAGGUGCGGGUG [Eternabot (L2) Solution 61] (Eterna round: R97, puzzle: Exclusion 1) | – | 52.5 | 286 | – | – | –
23 | UCGUUCCGUGUAGGAUAUUGGCCUGCUCUGGGUCGAGAAGGACAUGAGGAUCACCCAUGUAUGUUAUUAUCACGCGUGGCGCAU [Design 81] (Eterna round: R96, puzzle: Exclusion NG 1) | – | 61.7 | 31.8 | 22.9 | – | –
24 | CGUCUGUCAGGAUAUACUUACGUAGACAUGAGGAUCACCCAUGUGACGUGGGACUGGUGAGUAGAAGGGACGAACA [EX5 #75] (Eterna round: R97, puzzle: Exclusion 5) | – | 28 | 30.6 | – | – | –
25 | AUCCUACAUGAGGAUCACCCAUGUCAGGAUAUCCAAGAAAUAUGGCCGUAUCGGCCAUGGAGAAGGGAUAUGGG [jl-ex1-4.67 ViennaUCT mod] (Eterna round: R97, puzzle: Exclusion 1) | – | 26.5 | 115 | – | – | –
26 | UCAGUGCUGCGAGGAUAUACAUGAGGAUCACCCAUGUAAAUGUGUGAGGCUUUGCCUCACACAAUGUAGAAGGCGCAGUACUGU [Mat - Exclusion NG 2 - Mod of JL - D3] (Eterna round: R96, puzzle: Exclusion NG 2) | – | 17.2 | 14.3 | 11.1 | – | –
27 | GGCAUAAACGAGGAUAUCGUUACGGAAACGUAACGAGAAGGUGUAACAUGAGGAUCACCCAUGUUCCUCAAGCC [Mat - Exclusion 6 - Eli Mod - D59] (puzzle: Exclusion 6) | 28.9 | – | – | – | – | –
28 | CAUUAUUAUCGAGGAUAUCCUAUUGAAAUUCUGGGAGAAGGCGGACUCAACAUGAGGAUCACCCAUGUGGGACGGAUGCUGGGA [salish99_exng1_r04_604] (Eterna round: R96, puzzle: Exclusion NG 1) | – | 18 | 21 | 20.9 | – | –
29 | UGUGCGUAUGUGAGGAUAUGCUGGUCCUUGGAUCGGCAGAAGGCACAUGAGGAUCACCCAUGUGGUGUCGUUCA [salish99_Bmod_ex4_098] (puzzle: Brourd's mod of Exclusion 4) | 208 | – | – | – | – | –
30 | GGUUGACAUGAGGAUCACCCAUGUGAGGAUAUGCGAGAGAAAAAAGUGAGGAAGUUUUGCAGAAGGCGCUGUCG [salish99-ex1_r3_007] (puzzle: Exclusion 1) | 87.5 | – | – | – | 43.5 | 56
31 | CUUCAUUGUUGAGGAUAUAAUUAUAGGAUGUAGUUAGAAGGCGAACAUGAGGAUCACCCAUGUCAGGCAUGGAGACCCUUGACC [Eternabot solution 8] (Eterna round: R96, puzzle: Exclusion NG 1) | – | – | – | 308 | – | –
32 | AAUUAUUGAUGAGGAUAUUGUGGUGAAACACGACAAGAAGGCAUUAUUCACAUGAGGAUCACCCAUGUGAGCCUGAUGCAUAUA [Ex NG1 #60] (Eterna round: R96, puzzle: Exclusion NG 1) | – | – | – | 11.5 | – | –
33 | AGCCACAGAGGAUAUACAUACAUCCAGUAGUUGAGAAAACUACAUGAGGAUCACCCAUGUAGAAGGCUGUGGCA [Omei Ex2 BD B4] (Eterna round: R97, puzzle: Exclusion 2) | – | 27.4 | 321 | – | – | –
34 | GUAAACGAAGAGGAUAUAUGAUAUCAAAGCUUCAUAGAAGGCUUCACAUGAGGAUCACCCAUGUGAUCUUCAAA [Mat - Exclusion 6 - JL Mod - D26] (Eterna round: R97, puzzle: Exclusion 6) | – | 203 | 38.1 | – | – | –
35 | UUUUGGCAUGUAGGAUAUGGGUCCGAUUAGGAUUUAGAAGGACAUGAGGAUCACCCAUGUGCAUUUAAUUGGUCUUUAUUUUUU [EXclNG1-LROPPY14] (Eterna round: R96, puzzle: Exclusion NG 1) | – | – | – | 62.3 | – | –
